Experimental data reported in patent US20220227830A1, “QD DOSING OF GIP RECEPTOR AGONIST PEPTIDE COMPOUNDS AND USES THEREOF” (Takeda Pharmaceutical Company Limited, priority 2020, published 2022).
Starred links: 1 amine or outer side, 2 acyl side, 3 side chain; linkers in the order of their positions; H or OH if unused. Non-standard residues stand in square brackets, D forms with d. Groups on a side chain read outwards from the residue. No end group written: not given here. *: point of attachment. C15 diacid = O=C(O)CCCCCCCCCCCCCC(=O)*; γGlu = O=C(O)[C@H](CCC(=O)[*:2])N[*:1]; NMeY = CN[C@@H](Cc1ccc(O)cc1)C(=O)O; AEEA = NCCOCCOCC(=O)O; Aib = CC(C)(N)C(=O)O

T1: full-length human GIPR with an N-terminal FLAG tag (human, UniProt P48546 22-466)
T1 sequence (looked up): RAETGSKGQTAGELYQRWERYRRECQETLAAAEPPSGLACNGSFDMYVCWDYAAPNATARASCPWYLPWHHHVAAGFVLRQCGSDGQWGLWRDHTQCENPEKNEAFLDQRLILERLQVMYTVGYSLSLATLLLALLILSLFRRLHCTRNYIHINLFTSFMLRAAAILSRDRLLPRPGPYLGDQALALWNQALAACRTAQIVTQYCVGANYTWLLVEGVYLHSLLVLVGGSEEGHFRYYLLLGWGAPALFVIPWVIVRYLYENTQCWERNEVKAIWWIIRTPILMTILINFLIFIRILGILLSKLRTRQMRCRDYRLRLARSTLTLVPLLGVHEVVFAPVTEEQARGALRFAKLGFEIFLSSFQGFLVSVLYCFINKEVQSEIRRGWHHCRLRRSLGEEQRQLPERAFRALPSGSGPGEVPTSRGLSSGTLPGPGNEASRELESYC


Columns and labels:
[1] = target: T1, full-length human GIPR with an …; test: cell-based or functional assay
[2] = target: full-length human GLP-1R with an N-terminal FLAG tag (human, UniProt P43220 24-463); test: cell-based or functional assay

| Binder | Human GIPR cAMP, HEK293T EC50 [1] [nM] | Human GLP1R cAMP HEK293T EC50 [2] [nM] |
| --- | --- | --- |
| [NMeY][Aib]EGTFISDYSIALDR[Aib]AQ[Aib]K([AEEA-AEEA-γGlu-C15 diacid])FVNWLLAQSPSSGAPPPS-NH2 (N-terminus assumed; SMILES CC[C@H](C)[C@H](NC(=O)[C@H](CO)NC(=O)[C@H](Cc1ccc(O)cc1)NC(=O)[C@H](CC(=O)O)NC(=O)[C@H](CO)NC(=O)[C@@H](NC(=O)[C@H](Cc1ccccc1)NC(=O)[C@@H](NC(=O)CNC(=O)[C@H](CCC(=O)O)NC(=O)C(C)(C)NC(=O)[C@H](Cc1ccc(O)cc1)NC)[C@@H](C)O)[C@@H](C)CC)C(=O)N[C@@H](C)C(=O)N[C@@H](CC(C)C)C(=O)N[C@@H](CC(=O)O)C(=O)N[C@@H](CCCNC(=N)N)C(=O)NC(C)(C)C(=O)N[C@@H](C)C(=O)N[C@@H](CCC(N)=O)C(=O)NC(C)(C)C(=O)N[C@@H](CCCCNC(=O)COCCOCCNC(=O)COCCOCCNC(=O)CC[C@H](NC(=O)CCCCCCCCCCCCCC(=O)O)C(=O)O)C(=O)N[C@@H](Cc1ccccc1)C(=O)N[C@H](C(=O)N[C@@H](CC(N)=O)C(=O)N[C@@H](Cc1c[nH]c2ccccc12)C(=O)N[C@@H](CC(C)C)C(=O)N[C@@H](CC(C)C)C(=O)N[C@@H](C)C(=O)N[C@@H](CCC(N)=O)C(=O)N[C@@H](CO)C(=O)N1CCC[C@H]1C(=O)N[C@@H](CO)C(=O)N[C@@H](CO)C(=O)NCC(=O)N[C@@H](C)C(=O)N1CCC[C@H]1C(=O)N1CCC[C@H]1C(=O)N1CCC[C@H]1C(=O)N[C@@H](CO)C(N)=O)C(C)C) [Compound 92] | 0.0013 | 74.1 |
| [NMeY][Aib]EGTFISDYSIALDR[Aib]AQ[Aib]K([AEEA-AEEA-γGlu-γGlu-C15 diacid])FVNWLLAQSPSSGAPPPS-NH2 (N-terminus assumed; SMILES CC[C@H](C)[C@H](NC(=O)[C@H](CO)NC(=O)[C@H](Cc1ccc(O)cc1)NC(=O)[C@H](CC(=O)O)NC(=O)[C@H](CO)NC(=O)[C@@H](NC(=O)[C@H](Cc1ccccc1)NC(=O)[C@@H](NC(=O)CNC(=O)[C@H](CCC(=O)O)NC(=O)C(C)(C)NC(=O)[C@H](Cc1ccc(O)cc1)NC)[C@@H](C)O)[C@@H](C)CC)C(=O)N[C@@H](C)C(=O)N[C@@H](CC(C)C)C(=O)N[C@@H](CC(=O)O)C(=O)N[C@@H](CCCNC(=N)N)C(=O)NC(C)(C)C(=O)N[C@@H](C)C(=O)N[C@@H](CCC(N)=O)C(=O)NC(C)(C)C(=O)N[C@@H](CCCCNC(=O)COCCOCCNC(=O)COCCOCCNC(=O)CC[C@H](NC(=O)CC[C@H](NC(=O)CCCCCCCCCCCCCC(=O)O)C(=O)O)C(=O)O)C(=O)N[C@@H](Cc1ccccc1)C(=O)N[C@H](C(=O)N[C@@H](CC(N)=O)C(=O)N[C@@H](Cc1c[nH]c2ccccc12)C(=O)N[C@@H](CC(C)C)C(=O)N[C@@H](CC(C)C)C(=O)N[C@@H](C)C(=O)N[C@@H](CCC(N)=O)C(=O)N[C@@H](CO)C(=O)N1CCC[C@H]1C(=O)N[C@@H](CO)C(=O)N[C@@H](CO)C(=O)NCC(=O)N[C@@H](C)C(=O)N1CCC[C@H]1C(=O)N1CCC[C@H]1C(=O)N1CCC[C@H]1C(=O)N[C@@H](CO)C(N)=O)C(C)C) [Compound 93] | 0.0002 | 490 |
| [NMeY][Aib]EGTFISDYSI[Aib]K([AEEA-γGlu-γGlu-C15 diacid])DR[Aib]AQ[Aib]NFVNWLLAQRPSSGAPPPS-NH2 (N-terminus assumed; SMILES CC[C@H](C)[C@H](NC(=O)[C@H](Cc1ccccc1)NC(=O)[C@@H](NC(=O)CNC(=O)[C@H](CCC(=O)O)NC(=O)C(C)(C)NC(=O)[C@H](Cc1ccc(O)cc1)NC)[C@@H](C)O)C(=O)N[C@@H](CO)C(=O)N[C@@H](CC(=O)O)C(=O)N[C@@H](Cc1ccc(O)cc1)C(=O)N[C@@H](CO)C(=O)N[C@H](C(=O)NC(C)(C)C(=O)N[C@@H](CCCCNC(=O)COCCOCCNC(=O)CC[C@H](NC(=O)CC[C@H](NC(=O)CCCCCCCCCCCCCC(=O)O)C(=O)O)C(=O)O)C(=O)N[C@@H](CC(=O)O)C(=O)N[C@@H](CCCNC(=N)N)C(=O)NC(C)(C)C(=O)N[C@@H](C)C(=O)N[C@@H](CCC(N)=O)C(=O)NC(C)(C)C(=O)N[C@@H](CC(N)=O)C(=O)N[C@@H](Cc1ccccc1)C(=O)N[C@H](C(=O)N[C@@H](CC(N)=O)C(=O)N[C@@H](Cc1c[nH]c2ccccc12)C(=O)N[C@@H](CC(C)C)C(=O)N[C@@H](CC(C)C)C(=O)N[C@@H](C)C(=O)N[C@@H](CCC(N)=O)C(=O)N[C@@H](CCCNC(=N)N)C(=O)N1CCC[C@H]1C(=O)N[C@@H](CO)C(=O)N[C@@H](CO)C(=O)NCC(=O)N[C@@H](C)C(=O)N1CCC[C@H]1C(=O)N1CCC[C@H]1C(=O)N1CCC[C@H]1C(=O)N[C@@H](CO)C(N)=O)C(C)C)[C@@H](C)CC) [Compound 94] | 0.0006 | 501 |
| [NMeY][Aib]EGTFISDYSI[Aib]K([GGEEE-C15 diacid])DR[Aib]AQ[Aib]NFVNWLLAQRPSSGAPPPS-NH2 [Compound 95] | 0.0002 | 537 |
| [NMeY][Aib]EGTFISDYSIALDR[Aib]AQ[Aib]KFVNWLLAQRGGGGS-NH2 (not fully specified (residue 21)) [Compound 96] | 0.0004 | 89.1 |
| [NMeY][Aib]EGTFISDYSIAK([G5-γGlu-C15 diacid])DR[Aib]AQ[Aib]DFVNWLLAQRGGGGS-NH2 [Compound 97] | 0.0002 | 490 |
| [NMeY][Aib]EGTFISDYSIALDR[Aib]AQ[Aib]DFVNWLLAK([AEEA-AEEA-γGlu-C15 diacid])SPSSG-NH2 (N-terminus assumed; SMILES CC[C@H](C)[C@H](NC(=O)[C@H](CO)NC(=O)[C@H](Cc1ccc(O)cc1)NC(=O)[C@H](CC(=O)O)NC(=O)[C@H](CO)NC(=O)[C@@H](NC(=O)[C@H](Cc1ccccc1)NC(=O)[C@@H](NC(=O)CNC(=O)[C@H](CCC(=O)O)NC(=O)C(C)(C)NC(=O)[C@H](Cc1ccc(O)cc1)NC)[C@@H](C)O)[C@@H](C)CC)C(=O)N[C@@H](C)C(=O)N[C@@H](CC(C)C)C(=O)N[C@@H](CC(=O)O)C(=O)N[C@@H](CCCNC(=N)N)C(=O)NC(C)(C)C(=O)N[C@@H](C)C(=O)N[C@@H](CCC(N)=O)C(=O)NC(C)(C)C(=O)N[C@@H](CC(=O)O)C(=O)N[C@@H](Cc1ccccc1)C(=O)N[C@H](C(=O)N[C@@H](CC(N)=O)C(=O)N[C@@H](Cc1c[nH]c2ccccc12)C(=O)N[C@@H](CC(C)C)C(=O)N[C@@H](CC(C)C)C(=O)N[C@@H](C)C(=O)N[C@@H](CCCCNC(=O)COCCOCCNC(=O)COCCOCCNC(=O)CC[C@H](NC(=O)CCCCCCCCCCCCCC(=O)O)C(=O)O)C(=O)N[C@@H](CO)C(=O)N1CCC[C@H]1C(=O)N[C@@H](CO)C(=O)N[C@@H](CO)C(=O)NCC(N)=O)C(C)C) [Compound 98] | 0.0006 | 1000 |
| [NMeY][Aib]EGTFISDYSIAK([GGEEE-C15 diacid])DR[Aib]AQ[Aib]NFVNWLLAQRPSSGAPPPS-NH2 [Compound 99] | 0.0002 | 1000 |
